The record followed here is patent publication US10973882B2, “Methods for reducing severity of pulmonary fibrosis” (CEDARS-SINAI MEDICAL CENTER, priority 2017, dated 2021).

The test system of one assay is CD24^−Sca-1^−AEC2s. As to the kind of experiment: 3D Matrigel organoid culture, colony-forming efficiency (CFE) of mouse AEC2s. Type of assay: cell-based. How it is done: Flow-sorted mouse CD24^−Sca-1^−AEC2s or human HTII-280^+AEC2s were cultured in Matrigel/medium (1:1) mixture in the presence of MLg2908 lung fibroblast cells (Barkauskas et al., 2013; Chen et al., 2012). 100 μl Matrigel/medium mix containing 3×10^3 type 2 cells and 2×10^5 MLg2908 cells were plated into each 0.4-μm Transwell insert of a 24-well plate. 400 μl of medium was added in the lower chambers. Medium was described previously (Chen et al., 2012). Matrigel was from BD Biosciences (catalog 354230). Fresh medium was changed every other day. Cultures were maintained in a humidified 37° C. and 5% CO2 incubator. Colonies were visualized with a Zeiss Axiovert40 inverted fluorescent microscope (Carl Zeiss AG, Oberkochen, Germany). The number of colonies with a diameter of ≥50 μm from each insert was counted, and the colony-forming efficiency (CFE) was determined by the number of colonies in each culture as a percentage of the number of input epithelial cells at day 12 after plating.
For culture with IL-6 protein or anti-IL-6, sorted type 2 cells were pretreated with IL-6 protein or anti-IL-6 at room temperature for 30 minutes. Type 2 cells were then mixed with fibroblasts in the Matrigel/medium mixture and plated into Transwell inserts. The same concentration of IL-6 protein or IL-6 antibody was added into the Matrigel/medium mix and into the medium placed in the lower chambers.
Healon GV was purchased from Abbott Medical Optics (Abbot Park, Ill.). Pep-1 was synthesized by Sigma-Genosys and dissolved in DMSO to form a 100 μg/μl stock solution as described previously (Jiang et al., 2005; Mummert et al., 2000). For 3D matrigel culture, sorted type 2 cells were pretreated with Healon (200 μg/ml) or pep-1 (125 μg/ml) at room temperature for 30 minutes. Higher concentrations of Healon (400 μg/ml, 600 μg/ml, and 800 μg/ml) were used for 3D matrigel culture of IPF AEC2s. Cells were then mixed with fibroblasts in Matrigel/medium mix and plated into Transwell inserts. The same concentrations of Healon or Pep-1 were added into the Matrigel/medium mix and medium that were placed in the lower chambers.
The cell-permeable STAT3 inhibitor S3I-201 was purchased from Santa Cruz Biotechnology (Dallas, Tex.) and dissolved in DMSO to form stock solution of 10 mg/ml (MW 365.36). The dose for treating type 2 cells in colony-formation assays was 50 μM and 100 μM. The same amounts of DMSO were added into the control wells. Flow-sorted type 2 cells were pretreated with the STAT3 inhibitor at 50 μM or 100 μM concentrations, and with IL-6 protein (100 ng/ml), at room temperature for 30 minutes. Cells were then mixed with fibroblasts in Matrigel/medium mix and plated into Transwell inserts. […]

In the next assay the test system is human HTII-280^+AEC2s. The assay is described as follows: 3D matrigel culture, colony-forming efficiency (CFE) of human AEC2s. Type of assay: cell-based. The following applies: AEC2s sorted from diseased (IPF) lung; rIL-6 200 ng/ml vs medium without exogenous IL-6; FIG. 13H. How it is done: (§1) Recombinant mouse IL-6 protein (Catalog 406-ML/CF, R&D Systems) was supplied in 50 mM sodium acetate and 1 mM EDTA and was diluted (1:5 or more depending on the stock concentration) in sterile PBS, and 2 μg per mouse in 50 μl was injected intramuscularly at 1 day before and at 1 day and 3 days after bleomycin instillation. Control buffer was made of the same volume of 50 mM sodium acetate and 1 mM EDTA solution and PBS. Mouse anti-IL-6 (MAB406, Clone #MP5-20F3, R&D Systems) or control IgG was reconstituted with sterile PBS. 250 μg per mouse in 250 μl sterile PBS was injected intraperitoneally to mice at 1 day before and at 1 day and 3 days after bleomycin instillation. Recombinant human IL-6 protein (Catalog 206-IL-010, R&D Systems) was reconstituted with sterile PBS containing 0.1% BSA. 200 ng/ml was used for organoid culture of human AEC2s.
Single-cell suspensions from human lungs were isolated as described (Barkauskas et al., 2013). The procedures of staining the cells for flow cytometry and data analysis were described previously (Barkauskas et al., 2013; Liang et al., 2012). […] Flow cytometry was performed using a FACSCanto II flow cytometer and FACSAria III sorter (BD Immunocytometry Systems, San Jose, Calif.) and analyzed using Flow Jo 9.6.4 software (Tree Star, Ashland, Oreg.). […]

Assay [1] has as its system bleomycin-induced lung injury. As to the kind of experiment: Bleomycin lung injury model with rIL-6 or anti-IL-6 administration. Type of assay: in vivo, mouse.
Text: Mice. Tlr4^−/− and Tlr2^−/− mice were obtained (Takeuchi et al., 1999; Kawai et al., 1999), Has2^flox/+ mice were generated using the Cre-loxP system (Li et al., 2011; Matsumoto et al., 2009), and SFTPC-Cre mice, SFTPC-CreER mice, SFTPC-GFP mice, and Rosa-Tomato^flox/flox mice were generated (Barkauskas et al., 2013; Chen et al., 2012; Eblaghie et al., 2006). All mice were backcrossed on the C57Bl/6J background for more than six generations. […] Has2^flox/flox homozygous mice were crossed with SFTPC-Cre^+ mice to generate SFTPC-Cre^+;Has2^flox/flox mice. Rosa-Tomato^flox/flox mice were crossed with SFTPC-CreER mice to generate SFTPC-CreER^+;Rosa-Tomato^flox/flox mice. Animals were randomly assigned to treatment groups, and they were age- and sex-matched. 8- to 12-week-old mice of both sexes (male:female ratio ˜1:1) were used in the bleomycin lung injury model. Animals for experiments were selected by genotype, and no blinding was performed.
Bleomycin instillation and BAL procedures were described previously (Dong et al., 2015; Lovgren et al., 2011). Under anesthesia, the trachea was surgically exposed. 1.25-5 U/kg bleomycin (Hospira, Lake Forest, Ill.) in 25 μl PBS was instilled into the mouse trachea with a 25-G needle inserted between the cartilaginous rings of the trachea. Control animals received saline alone. The tracheostomy site was sutured, and the animals were allowed to recover. Mice were euthanized at different time points, and lung tissue and BAL fluid were collected for experiments. 0.8-ml aliquots of PBS were used for lavage. Cell-free BAL fluid was stored in a −80° C. freezer for cytokine measurement.
Collagen contents in mouse lungs were measured using a conventional hydroxyproline method (Jiang et al., 2004). Lung tissues were vacuum-dried and hydrolyzed with 6 N hydrochloride acid at 120° C. overnight. Hydroxyproline content was expressed as ‘μg per lung’, unless specified otherwise. The ability of the assay to completely hydrolyze and recover hydroxyproline from collagen was confirmed using samples containing known amounts of purified collagen.
as §1
Single-cell suspensions from mouse lungs were isolated as described (Chen et al., 2012). Mouse lungs were perfused with 5 ml PBS and digested with elastase (4 U/ml; Worthington Biochemical Corporation) and DNase I (100 U/ml; Sigma) to obtain single-cell suspensions for flow cytometry. Primary antibodies to CD31, CD34, CD45, Sca-1, and CD24, and secondary antibody anti-streptavidin were all from eBioscience (San Diego, Calif.). Mouse anti-EpCAM (G8.8, catalog 118215) and anti-Ki67 (catalog 652403) were from BioLegend (San Diego, Calif.). 7-AAD was from BD Biosciences (San Diego, Calif.).
The procedures of staining the cells for flow cytometry and data analysis were described previously (Chen et al., 2012; Liang et al., 2012). In brief, cells were resuspended in Hank's balanced saline solution supplemented with 2% FBS (FBS), 10 mM HEPES, 0.1 mM EDTA, 100 IU/ml penicillin, 100 μg/ml streptomycin (HBSS+ buffer). […]

Setting [2] is: bleomycin-treated Tlr4^−/− mice, rIL-6 vs control buffer, FIG. 10G.

Take `Cc1ccc(S(=O)(=O)OCC(=O)Nc2ccc(C(=O)O)c(O)c2)cc1` [S3I-201, reference compound]: the “rIL6-promoted colony formation of CD24^−Sca-1^−AEC2s” value in the assay with CD24^−Sca-1^−AEC2s (STAT3 inhibitor 50 μM or 100 μM with IL-6 protein 100 ng/ml, FIG. 11C) is “abolished”.

B1: rIL-6: Recombinant mouse IL-6 protein (Catalog 406-ML/CF, R&D Systems), used for mouse AEC2s and in mice (protein, UniProt P08505 25-211, looked up)
Interleukin-6: FPTSQVRRGDFTEDTTPNRPVYTTSQVGGLITHVLWEIVEMRKELCNGNSDCMNNDDALAENNLKLPEIQRNDGCYQTGYNQEICLLKISSGLLEYHSYLEYMKNNLKDNKKDKARVLQRDTETLIHIFNQEVKDLHKIVLPTPISNALLTDKLESQKEWLRTKTIQFILKSLEEFLKVTLRSTRQT
With B1, the “CFEs of HTII-280^+AEC2s” value in the assay on human HTII-280^+AEC2s is given as “markedly increased”. For the same molecule, the “hydroxyproline content in the lungs” value in assay [1] (Tlr4^−/− mice, bleomycin and rIL-6 vs bleomycin alone, FIG. 10H) is on record as “lower”; in assay [1] (bleomycin-injured SFTPC-Cre;Has2^flox/flox mice, rIL-6 vs buffer, FIG. 10I), “lower hydroxyproline content”. The AEC2 apoptosis entry in assay [1] (bleomycin day 7 Tlr4^−/− mice, rIL-6 vs buffer, FIG. 11D) is “did not affect”. Besides, the “inflammatory cell infiltration (BAL cell counts)” value in assay [1] (bleomycin day 7 Tlr4^−/− mice, rIL-6 vs buffer, FIG. 11E) is recorded as “did not affect”. Besides, the survival result in assay [1] (bleomycin-injured Tlr4^−/− mice, rIL-6 vs buffer, 21 days, FIG. 11F) is “increased survival”. Moreover, the survival / mortality result in assay [1] (bleomycin-injured WT mice, anti-IL-6 250 μg per mouse i.p. vs control IgG (FIG. 11G), rIL-6 vs bleomycin alone (data not shown)) is “did not alter”. For the same molecule, the hydroxyproline levels result in assay [1] (bleomycin-injured WT mice, anti-IL-6 vs control IgG, rIL-6 vs bleomycin alone, data not shown) is given as “did not alter”. In assay [1] (bleomycin-treated Tlr4^−/− mice, rIL-6 2 μg per mouse i.m. day −1, 1, 3, vs control buffer, FIG. 10G), the “recovery of CD24^−Sca-1^−AEC2s” value is reported as “more recovery”. Further, the “Ki67 staining of CD24^−Sca-1^−AEC2s” value in assay [1] (setting [2]) is “greater Ki67 staining”. Further, the “concentration of total BALF proteins” value in assay [1] (setting [2]) was “lower concentration”. Moreover, the “CFEs of CD24^−Sca-1^−AEC2s” value is recorded as “promoted” in the assay on CD24^−Sca-1^−AEC2s (AEC2s from bleomycin-treated SFTPC-Cre;Has2^flox/flox mice, rIL-6 100 ng/ml, FIG. 10F); “promoted” in the assay with CD24^−Sca-1^−AEC2s (AEC2s from bleomycin-treated Tlr4^−/− mice, rIL-6 100 ng/ml, FIG. 10E); “increased” in the assay with CD24^−Sca-1^−AEC2s (AEC2s from bleomycin-treated WT mice, dose-dependent, vs control IgG or medium, FIGS. 10C-D).
